Values quoted from earlier work, collected in patent US7713705B2, “Markers for differential diagnosis and methods of use thereof” (Biosite, Inc., priority 2002, dated 2010).
Where two headings read alike, the source gives them in different places.

How the values were obtained:
[1] = plasma, in mice
[2] = bloodstream of rats
[3] = in animals

C-reactive protein [CRP]
half-life (bloodstream): approximately 19 hours

CK-BB: brain-specific creatine kinase isoform, an 85 kDa cytosolic protein
half-life (in vivo): 60 to 300 min

Interleukin-1β [IL-1β]
biphasic physiological half-life, first phase (in vivo): 5 minutes | biphasic physiological half-life, second phase (in vivo): 4 hours

Interleukin-6 [IL-6]
half-life (bloodstream): 252 min

Malondialdehyde-modified low-density lipoprotein [MDA-modified LDL]
half-life [1]: less than 5 minutes

Phosphoglyceric acid mutase [PGAM]
half-life [2]: less than 2 hours

Platelet factor 4 [PF4]
biphasic half-life, first phase (plasma): 1 min | extended half-life, second phase (plasma): 20 min | half-life extended by the presence of heparin (plasma): 20 to 40 min | biphasic half-life, first phase (serum): 1 min | extended half-life, second phase (serum): 20 min | half-life extended by the presence of heparin (serum): 20 to 40 min

Platelet-derived growth factor [PDGF]
biphasic half-life, first phase [3]: approximately 5 minutes | biphasic half-life, second phase [3]: ~60 min

Prothrombin fragment 1+2 [F1+2]
half-life (plasma): approximately 90 minutes

S-100β: β subunit of S-100, a 21 kDa cytosolic Ca2+-binding protein; specific to the nervous system
biological half-life (in vivo): 2 hours

Tumor necrosis factor α [TNFα]
half-life (bloodstream): approximately 1 hours

thrombin-ATIII complex [TAT]
half-life (bloodstream): approximately 5 minutes

B1: β-thromboglobulin (protein, UniProt P02775 48-128, looked up)
Beta-thromboglobulin: GKEESLDSDLYAELRCMCIKTTSGIHPKNIQSLEVIGKGTHCNQVEVIATLKDGRKICLDPDAPRIKKIVQKKLAGDESAD
modifications: Beta-thromboglobulin
biphasic half-life, first phase (plasma): 10 min | extended half-life, second phase (plasma): 60 min | biphasic half-life, first phase (serum): 10 min | extended half-life, second phase (serum): 60 min

B2: neuron-specific enolase (protein, UniProt P09104 2-434, looked up)
Gamma-enolase: SIEKIWAREILDSRGNPTVEVDLYTAKGLFRAAVPSGASTGIYEALELRDGDKQRYLGKGVLKAVDHINSTIAPALISSGLSVVEQEKLDNLMLELDGTENKSKFGANAILGVSLAVCKAGAAERELPLYRHIAQLAGNSDLILPVPAFNVINGGSHAGNKLAMQEFMILPVGAESFRDAMRLGAEVYHTLKGVIKDKYGKDATNVGDEGGFAPNILENSEALELVKEAIDKAGYTEKIVIGMDVAASEFYRDGKYDLDFKSPTDPSRYITGDQLGALYQDFVRDYPVVSIEDPFDQDDWAAWSKFTANVGIQIVGDDLTVTNPKRIERAVEEKACNCLLLKVNQIGSVTEAIQACKLAQENGWGVMVSHRSGETEDTFIADLVVGLCTGQIKTGAPCRSERLAKYNQLMRIEEELGDEARFAGHNFRNPSVL
biological half-life (in vivo): 48 hours
